Source: patent publication US20100215575A1, “Systemic Administration of Chlorotoxin Agents for the Diagnosis and Treatment of Tumors” (TRANSMOLECULAR, INC., priority 2007, published 2010)

System: D54-MG xenografted human glioma tumors
Assay: Brain tumor targeting after intravenous injection (D54-MG/SCID mouse model)
Type: in vivo
Conditions: tail vein injection, measured after 24 hours
From the text: These experiments consisted of five research studies utilizing the […] mouse model.

125I-EGF: 125I-labeled EGF used as a control; EGF receptor is up-regulated in these tumors
Targeting of brain tumor: did not localize to the brain tumors to any appreciable extent
